This passage reports ratio to parent results from publication PMC5028891 (Scientific Reports, 2016).

The chains are these.
B1: unnamed (parent)
chain 1: MASMGLQVMGIALAVLGWLAVMLCCALPMWRVTAFIGSNIVTSQTIWEGLWMNCVVQSTGQMQCKVYDSLLALPQDLQAARALVIISIIVAALGVLLSVVGGKCTNCLEDESAKAKTMIVAGVVFLLAGLMVIVPVSWTAHNIIQDFYNPLVASGQKREMGASLYVGWAASGLLLLGGGLLCCNCPPRTDKPYSAKYSAARSAAASNYV
chain 2: RCVLTVPSTDIEKEILDLAAATERLNLTDALNSNPAGNLYDWRSSNSYPWTQKLNLHLTITATGQKYRILASKIVDFNIYSNNFNNLVKLEQSLGDGVKDHYVDISLDAGQYVLVMKANSSYSGNYPYSILFQKF

Variants of B1 are the subject of the assay. Kind of assay: pull-down. Conditions: with partner chain of the complex shown; n = 4; parent: 1; read off a plot.
For the variant chain 1 I40A, the ratio to parent turned out to be 1.1.

chain 1 I40D: the ratio to parent worked out at 0.21.
